Measured values as given in paper PMC9074039, “Molecular analysis and essentiality of Aro1 shikimate biosynthesis multi-enzyme in Candida albicans” (Life Science Alliance, 2022).

Experiments:
[1] = target: the molecule itself; experiment: crystal structure; Aro1_(SK-DHQase-DHSD), sitting drop, room temperature; four copies in the asymmetric unit
[2] = target: the molecule itself; experiment: SEC; Superdex 200, 150 mM NaCl, 10 mM Hepes pH 7.5; tag-free Aro1 purified from C. albicans
[3] = target: the molecule itself; experiment: crystal structure; Aro1_(DHQS) with 2 mM NADH and 0.5 mM ZnCl2, sitting drop, room temperature; two copies in the asymmetric unit

B1: Aro1_(SK-DHQase-DHSD), C. albicans Aro1 residues 845-1,551 (SK, DHQase and DHSD domains) (domain or fragment, UniProt Q5AME2 845-1551, looked up)
chain: PPFNTDKHVDKSSDKSIIVIGMRGTGKSTLSEWLASFLGFKMLDMDKYLEEKLGTGIKSLIKAKGWEYFRQEEAIVAKECFTKFSKGYVLSTGGGIVEGEDARQQLKSYADNGGIVLHLHRDLDETVTFLAADTTRPAYSSEVQEVWLRREKWYHECSNYHFYSSHCSTEDEFNHLRRSFVNYIKLITGAERPVVPAGRSAAVVLTSPDLNEVVGDLESITIGADAVELRVDLFKDTSAEFVAAQIAVIRKHADLPIIYTVRTVSQGGKFPDENVDELKSLLLLGIRLGVAYVDLQLTAPNELIEEISSKKGFTRVIGTYQDINGELKWNNVEWKNKYNQGVSMNADIVRLVGKANSIQDNLDLENFKKQNTLKPLIAFNLGSQGKLSQVLNGTFTPISHKLLPNDEEFLTIGELNQTYFDIGGFTAKKFWVIGSPIEHSRSPNLHNAGYKALNLPYQFGRFEATDVDVVYDNLINKPDFGGLAITMPLKLDIMKFATKLSDAAETIGAVNTLIPIEGGYFGDNTDWVGISNSFIRAGVPPKSSSNGLVVGAGGTSRAAIYALHQMGCAKIYLVNRTAAKLEELVKSFPKDYNLEIVETEQQADKASKVSLAVSCIPADKPLDGEVLKKIERILSNGSEQSAGFKPTLLEASYKPRVTPIMKLTEEQYKWKVIPGVEMLVNQGDRQFKLHTGFTAPYEIIHRAVVEE
notes: Aro1, Candida albicans, residues 845-1551: SK domain (857-1032), linker (1033-1038), DHQase domain (1039-1267), DHSD domain (1268-1551); Four copies in the asymmetric unit; also called Aro1_(SK-DHQ-DHSD); source: E. coli BL21(DE3) Gold, purified (Ni-NTA, TEV cleavage, second Ni-NTA); not shown: His6, N-terminal, cleaved
B1: binds [1].

B2: full-length C. albicans Aro1 (enzyme, UniProt Q5AME2 1-1551, looked up)
chain: MSIEKVPILGKETIHVGYGIADHIVREVIANLASSTYVIVTDTNMARTPQYSKLTDDFKTNLSEKRPESRLLTYCVSPGENNKNRATKAAVEDFLLQQGCTRDTVILAVGGGVIGDMIGFVAATFMRGVRVVQVPTTLLAMVDSSVGGKTAIDTPLGKNFIGAFHQPEYVFCDVSFLETLPARQFINGMAEVVKTAAIWNEEEFTRLENFSKKFLSVVTSKKPDLQSIKAELVKTVLESVRVKAGVVSSDEKEAGLRNLLNFGHTIGHAIEAVLTPEALHGECVSIGMIKEAELSRYLGILPPVAVARLSKCLVAYGLPVSIDDKEFLKKVGPKRHYVEIDILLKKMAIDKKNDGSKIRCVLLEKIGKCYQLKAHQVSKQDLSFVLTDEVLVHPFTNPPKENIIVPPGSKSISNRALILAALGNGTVRVKNLLHSDDTKHMLDAVASLKGAEISTEDNGETIVVKGNGGNLVTSGEELYLGNAGTASRFLTTVASLVGKSQASDDVILTGNARMQERPIGPLVDALGSNGSEIEYLNKQGSLPLKISAGNGLKGGRIELAATISSQYVSSILMCAPYAKEPVTLALVGGKPISQLYIDMTCAMMKSFGIEVTKSTTEEYTYHIPKGTYKNPSEYVIESDASSATYPLAFAAMTGTSCTIPNIGSSSLQGDAKFAVDVLKPMGCKVEQTTTSTTVTGPPRGHLKPLPHVDMEPMTDAFLTASVVAAVAKGGSSTSITGIANQRVKECNRIEAMVTELAKFGVPANELPDGIEIHGIDIEDLKTPEISKRGVSSYDDHRVAMSFSLLAGLCKEPVLILERSTTGKTWPGWWDILHSKFKIELDGYEPPFNTDKHVDKSSDKSIIVIGMRGTGKSTLSEWLASFLGFKMLDMDKYLEEKLGTGIKSLIKAKGWEYFRQEEAIVAKECFTKFSKGYVLSTGGGIVEGEDARQQLKSYADNGGIVLHLHRDLDETVTFLAADTTRPAYSSEVQEVWLRREKWYHECSNYHFYSSHCSTEDEFNHLRRSFVNYIKLITGAERPVVPAGRSAAVVLTSPDLNEVVGDLESITIGADAVELRVDLFKDTSAEFVAAQIAVIRKHADLPIIYTVRTVSQGGKFPDENVDELKSLLLLGIRLGVAYVDLQLTAPNELIEEISSKKGFTRVIGTYQDINGELKWNNVEWKNKYNQGVSMNADIVRLVGKANSIQDNLDLENFKKQNTLKPLIAFNLGSQGKLSQVLNGTFTPISHKLLPNDEEFLTIGELNQTYFDIGGFTAKKFWVIGSPIEHSRSPNLHNAGYKALNLPYQFGRFEATDVDVVYDNLINKPDFGGLAITMPLKLDIMKFATKLSDAAETIGAVNTLIPIEGGYFGDNTDWVGISNSFIRAGVPPKSSSNGLVVGAGGTSRAAIYALHQMGCAKIYLVNRTAAKLEELVKSFPKDYNLEIVETEQQADKASKVSLAVSCIPADKPLDGEVLKKIERILSNGSEQSAGFKPTLLEASYKPRVTPIMKLTEEQYKWKVIPGVEMLVNQGDRQFKLHTGFTAPYEIIHRAVVEE
notes: Aro1 pentafunctional shikimate pathway multi-enzyme (DHQS, EPSPS, SK, DHQase, DHSD domains), Candida albicans, full length, residues 1-1551; Expressed from the tagged genomic ARO1 alleles under the tetO promoter in C. albicans; the His6TEV tag was removed with TEV protease before SEC and cryo-EM; also called His6TEVAro1; wild-type Aro1; source: C. albicans CaLC6830 …
In the case of B2, the “stoichiometry N” value [2] is reported as 2.

B3: Aro1_(DHQS), C. albicans Aro1 residues 1-387 (DHQS domain) (domain or fragment, UniProt Q5AME2 1-387, looked up)
chain: MSIEKVPILGKETIHVGYGIADHIVREVIANLASSTYVIVTDTNMARTPQYSKLTDDFKTNLSEKRPESRLLTYCVSPGENNKNRATKAAVEDFLLQQGCTRDTVILAVGGGVIGDMIGFVAATFMRGVRVVQVPTTLLAMVDSSVGGKTAIDTPLGKNFIGAFHQPEYVFCDVSFLETLPARQFINGMAEVVKTAAIWNEEEFTRLENFSKKFLSVVTSKKPDLQSIKAELVKTVLESVRVKAGVVSSDEKEAGLRNLLNFGHTIGHAIEAVLTPEALHGECVSIGMIKEAELSRYLGILPPVAVARLSKCLVAYGLPVSIDDKEFLKKVGPKRHYVEIDILLKKMAIDKKNDGSKIRCVLLEKIGKCYQLKAHQVSKQDLSFVLT
notes: Aro1, Candida albicans, residues 1-387, 3-dehydroquinate synthase (DHQS) domain; Crystallised with NADH and ZnCl2; source: E. coli BL21(DE3) Gold, purified (Ni-NTA, TEV cleavage, second Ni-NTA); not shown: His6, N-terminal, cleaved
B3: binds [3].
